Measured values as given in the nanobody polyreactivity screen of Harvey et al. (2022).

experiment: yeast display, Sf9 membrane polyspecificity reagent, FACS + sequencing; frameworks hold sequencing errors
In short: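 Nanobodies from a synthetic yeast display library (Saccharomyces cerevisiae BJ5465), induced 36–48 hours with galactose, were stained 1 hour at 4 °C with 10% biotinylated, detergent-solubilized Sf9 membrane reagent, enriched on streptavidin microbeads, then FACS-sorted. Anti-HA (expression) and streptavidin (reagent binding) fluorescence set low and high (top ~1%) gates. Polyreactivity labels come from the gate of origin. Genes were colony-PCR amplified, MiSeq 2 × 250 sequenced and filtered by CDR length.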

Question: With “QVQLVESGGGLVQAGGSLRLSCAASGSTVAYYAMGWYRQAPGKERELVAAITWNGGRTFYADSVKGRFTISRDNAKNTVYLQMNSLKPEDTAVYYCAAATYQSRYFQRFDYWGQGTQVTVSS” as the sequence, how does the “polyreactivity (PSR sort gate)” value read?
Answer: high polyreactivity

Question: With “QVQLVESGGGLVQAGGSLRLSCAASGSTVDANAMGWYRPAPGKERELVATISDGGSTNYADSVKGRFTISRDNAKKTVYVQKNSLKPEDTAVYYCAAVKLFLGLGYDYWGQGTQVTVSS” as the sequence, how does the “polyreactivity (PSR sort gate)” value read?
Answer: low polyreactivity

Question: For “QVQLVESGGGLVQAGGSLRLSCAASGSTVHYMGWYRPAPGKERELVAGISWSGGSTYYADSVKGRFTISRDNAKNTVYLQMTSLKPEDTAVYYCAADIKIRLYTTGDYWGQGTQVTVSS”, which “polyreactivity (PSR sort gate)” value is on record?
Answer: low polyreactivity

Question: Which “polyreactivity (PSR sort gate)” value does the source give for “QVQLVESGGGLVQAGGSLRLSCAASGSTVYLNAMGWYRQAPGKDRELVAAITRIGGSTYYADSVKGRFTISRDNAKNTVYLQMNSLKPEDTAVYYCAKDYGPARHDRYGYWGLGTQVTVSS” here?
Answer: low polyreactivity

Question: Which “polyreactivity (PSR sort gate)” value does the source give for “QVQLVESGGGLVQAGGSLRLSCAASGSTVYYNAMGWYRQAPGKERELVADITTSGDSTYYADSVKGRFTISRDNAKNTVYFQMNSLKPEDTAVYYCNAGVVGDYPYWGLMDYWGQGTQVTVSS” here?
Answer: high polyreactivity

Question: With “QVQLVESGGGLVQAGGSLRLSCAASGSTWWYDMGSYRQAPGKERELVASISSGDSTNYADSVKGRFTISRDNAKNTVYLQMNSLKPEDTAVYYCAADFNFGFVWGDDYDYWGQGTQVTVSS” as the sequence, how does the “polyreactivity (PSR sort gate)” value read?
Answer: low polyreactivity

Question: Which “polyreactivity (PSR sort gate)” value does the source give for “QVQLVESGGGLVQAGGSLRLSCAASGSTYAMGWYRQAPGKERELVASITSRGGSTYYADSVKGRFTISRDNANNTVYLQMNSLKPEDTAVYYCAARWYYSYICYDYWRQGTQVTVSS” here?
Answer: high polyreactivity

Question: For “QVQLVESGGGLVQAGGSLRLSCAASGSTYDSNAMGWYRQAPGKERELVAAIDWSGGSTYYADSVKGRFTISRDNAKNTVYLQMNSLKPADTAVYYCAADDSSINYGDFDYWGQGTQVTVSS”, which “polyreactivity (PSR sort gate)” value is on record?
Answer: low polyreactivity

Question: With “QVQLVESGGGLVQAGGSLRLSCAASGSTYFRNAMGWYRQAPGKERELVADISASGGSTYYADSVKGRFTISRDNAKNTVYLQMNSLKPEDTAVYYCNALYIYFYNYLTIVYWGQGTQVTVSS” as the sequence, how does the “polyreactivity (PSR sort gate)” value read?
Answer: low polyreactivity

Question: With “QVQLVESGGGLVQAGGSLRLSCAASGSTYGIYAMGWYRQAPGKERELVAAISSGGSTNYADSVKGRFTISRDNAKNTVYLQMNSLKPEDTAVYYCAVESVYEYGGYVDSAYDYWGQGTQVTVSS” as the sequence, how does the “polyreactivity (PSR sort gate)” value read?
Answer: low polyreactivity

Question: For “QVQLVESGGGLVQAGGSLRLSCAASGSTYPYPYTMGWSRQAPGKERELVAVISRTGGSTFYADSVKGRFTISRDNAKNTVHLQMNSLKPEDTAVYYCAARRDGWTFWKYDYWGQGTQVTVSS”, which “polyreactivity (PSR sort gate)” value is on record?
Answer: high polyreactivity

Question: Which “polyreactivity (PSR sort gate)” value does the source give for “QVQLVESGGGLVQAGGSLRLSCAASGSYAKGWYRQAPGKERELVAYINGRDGSTYYADSVKGRFTISRDNAKNTVYLQMNSLIPEDTAVYYCNADYVLQYNYWGQGTQVTVSS” here?
Answer: low polyreactivity

Question: With “QVQLVESGGGLVQAGGSLRLSCAASGTFGVYAMGWYRQSPGKERELVAVITDSGGTNYADSVKGRFTISRDNAKNTVYLQMNSLKPEDTAVYYCNTDAGDYYGENYWGQGTQVTVSS” as the sequence, how does the “polyreactivity (PSR sort gate)” value read?
Answer: low polyreactivity

Question: With “QVQLVESGGGLVQAGGSLRLSCAASGTFKWYAMGWYRQAPGKERELVAVISSSGGTTYYADSVKGRFTISRDTAKITVYLQMNSLKPEDTAFYYCNAAKLFRYDYWGQGTQVTVSS” as the sequence, how does the “polyreactivity (PSR sort gate)” value read?
Answer: high polyreactivity

Question: Which “polyreactivity (PSR sort gate)” value does the source give for “QVQLVESGGGLVQAGGSLRLSCAASGTFTSNAMGWYRQAPGKERELVAVITGGGRTNYADSVKGRFTISRDNAKNTVYLQMNSLKPEDTAVYYCAAEVYLPYYERYDYWGQGTQVTVSS” here?
Answer: low polyreactivity

Question: For “QVQLVESGGGLVQAGGSLRLSCAASGTFVTYMGWSRQAPGKERELVAAIRNGGSTNNADTVKGRFTISRDNAKNTVYLQMNSLIPEDTAVYYCAPRFTYSRGYRGGSRTKYDYWGQGTQVTVSS”, which “polyreactivity (PSR sort gate)” value is on record?
Answer: low polyreactivity

Question: With “QVQLVESGGGLVQAGGSLRLSCAASGTFVYYAMGWYRQAPGKERELVAVISLNGGITYYADSVKGRFTISRDNAKNTVYLQMNSLKPEDTAVYYCNAQFYNSGWSFKYYYWGQGTQVTVSS” as the sequence, how does the “polyreactivity (PSR sort gate)” value read?
Answer: low polyreactivity

Question: With “QVQLVESGGGLVQAGGSLRLSCAASGTFYKYAMGWYRQAPGKERELVAAISWRGGRTYADSVKGRFTISRDNAKNTVYLQMNSLKPEDTAVYYCNKRFYPEHYYWGQGTQVTVSS” as the sequence, how does the “polyreactivity (PSR sort gate)” value read?
Answer: high polyreactivity

Question: For “QVQLVESGGGLVQAGGSLRLSCAASGTFYPNAMGWYRQAPGKERELVAAISEDGGGTYYADSVKGRFTISRDNAKNTVYLQMNSLKPEDTAVYYCAAEYYDYWYTYDYWGQGTQVTVSS”, which “polyreactivity (PSR sort gate)” value is on record?
Answer: high polyreactivity

Question: Which “polyreactivity (PSR sort gate)” value does the source give for “QVQLVESGGGLVQAGGSLRLSCAASGTIFDAYAMGWYRQAPGKERELVAAISLDDGSTYYADSVKGRFTISRDNAKNTVYLQMNSLKPEDTAVYYCAADYYVRSQHLYATSGNYWGQGTQVTVSS” here?
Answer: high polyreactivity

Question: Which “polyreactivity (PSR sort gate)” value does the source give for “QVQLVESGGGLVQAGGSLRLSCAASGTIFPGYTIGWYRQAPGKEREFVAAISRRGGSTYYADSVKGRFTISRDNAKNTVYLQMNSLKPEDTAVYYCPKVPDYRFEYWGQGTLVTVSS” here?
Answer: high polyreactivity

Question: For “QVQLVESGGGLVQAGGSLRLSCAASGTIFRLYTMGWYSQAPGKERELVAAITGSGDSTYYADSVKGRFTISRDNAKNTVYLQMNSLKPEDTAFYYFAAKLSRVKYGYWGQGTQVTVSS”, which “polyreactivity (PSR sort gate)” value is on record?
Answer: high polyreactivity

Question: For “QVQLVESGGGLVQAGGSLRLSCAASGTIFRVYAMGRYRQAPGTERELVAAISSSGGSTYYADSVKGRFTISRDNAKTTVYLQMNSLKPEDTAVYYCAAEYDGPYTWVDYYYHYGYWGQGTQVTVSS”, which “polyreactivity (PSR sort gate)” value is on record?
Answer: low polyreactivity

Question: With “QVQLVESGGGLVQAGGSLRLSCAASGTIFTTYAIGWYRQEPGKERELVSAISGRGSDTYYADSVKGRFTISRDNAMNTVYLQMNSLKPEDTAVYYCNARRSRAYHGRSFEYWGQGTQVTLSS” as the sequence, how does the “polyreactivity (PSR sort gate)” value read?
Answer: low polyreactivity

Question: With “QVQLVESGGGLVQAGGSLRLSCAASGTIFVPYAMGWYRQAPGKERELVAVITSGGSTYYADSVKGRFTISRDNAKNTVYLQMNSLNPEDTAVYYCIADLYYVWSTLSQFDYWGQGTHVTVSS” as the sequence, how does the “polyreactivity (PSR sort gate)” value read?
Answer: low polyreactivity

Question: For “QVQLVESGGGLVQAGGSLRLSCAASGTIFYDNDMGWYRQAPGKERELVAAISWSASDTYYADSVKGRFTISRDNAKNTVYLHINILKPEDTAVYYCNAEVYVWYFVYSALDYWGLGTQVTVSS”, which “polyreactivity (PSR sort gate)” value is on record?
Answer: low polyreactivity

Question: Which “polyreactivity (PSR sort gate)” value does the source give for “QVQLVESGGGLVQAGGSLRLSCAASGTIFYVYAMGWYRQAPGKERELVDAINTSGGSTFYADSVKGRFTISRDNAKNTVYLHMKSLKPEDTAVYYCAAERYRYRSTDTMGYWGQGSQVTVSS” here?
Answer: low polyreactivity

Question: Which “polyreactivity (PSR sort gate)” value does the source give for “QVQLVESGGGLVQAGGSLRLSCAASGTIIVWNAMGRYRQARGKERELVASITSGASTNYADSVKGRFTISRDNAKNTVYLQMNSLKPEDTAVYYCNAGPRRTISRSRLRSAPKYDYWGQGTQVTVSS” here?
Answer: low polyreactivity

Question: With “QVQLVESGGGLVQAGGSLRLSCAASGTIIYLNAMAWYRQAPGKERELVAAITSGGSTYYADSVKGRFTISRDNAKNTVYVQMNSLKPEDTAVYYCAAFVWSGWGHWFYFWGQGTQVTVSS” as the sequence, how does the “polyreactivity (PSR sort gate)” value read?
Answer: high polyreactivity

Question: Which “polyreactivity (PSR sort gate)” value does the source give for “QVQLVESGGGLVQAGGSLRLSCAASGTISAYAMGWYRQAPGKERELVAAITRTGGSTYYADSVKGRFTISRDNAKNTVYLQMNSLKPEDTAVYYCATEFRYREFYYWGQGTQVTVSS” here?
Answer: high polyreactivity

Question: Which “polyreactivity (PSR sort gate)” value does the source give for “QVQLVESGGGLVQAGGSLRLSCAASGTIVGYAMGWYRQAPGKERELVASNSWRVGSTYYADSVKGRFTISRDNAKNTVYLQMISLKPEDTAVYYCNAASYVFLYYPGGIYRDDYWGQGTQVTVSS” here?
Answer: low polyreactivity

Question: With “QVQLVESGGGLVQAGGSLRLSCAASGTLSSYAMGWYRQAAGKERELVAALSLSGGSTYADSVKGRFTISRDNAYNTVYLQMNSLKPEDTAVYYCAKDWDVDITWSFSIYNYWGQGTQVTVSS” as the sequence, how does the “polyreactivity (PSR sort gate)” value read?
Answer: low polyreactivity

Question: For “QVQLVESGGGLVQAGGSLRLSCAASGTLSSYAMGWYRQAPGKERELVAAISLSGGSTYYADSVKGRFTISRDNAKNTVYLQMNSLKPEDTAVYYCAKRPKRTYYPHIGYDYWGQGTQVTVSS”, which “polyreactivity (PSR sort gate)” value is on record?
Answer: low polyreactivity

Question: Which “polyreactivity (PSR sort gate)” value does the source give for “QVQLVESGGGLVQAGGSLRLSCAASGTTFAKNAMGWYRQAPGKERELVAAISWSGGSTYYADSVKGRFTISRDNAKNSVYLQMNSLKPVDTAVYYCAADSPRYGGYGYWGQGTQVTVSS” here?
Answer: low polyreactivity

Question: With “QVQLVESGGGLVQAGGSLRLSCAASGTTISAYDMGRYRQAPGKEREMVAAITWIGGNTYYADSVKGRFTISRDNAKNTVYLQMNSLKPEDTAVYYCAAEEVPYDRDMDYWGQGTKVTVSS” as the sequence, how does the “polyreactivity (PSR sort gate)” value read?
Answer: low polyreactivity

Question: For “QVQLVESGGGLVQAGGSLRLSCAASGTTIYTNAKGWYRQAPGKEREFVAAISWSGSSTYADSVKGRFTISRDNAKNTFYLQMNSLKPEDTAVYYCAADWFKQRTDYYWGQGTQVTVSS”, which “polyreactivity (PSR sort gate)” value is on record?
Answer: low polyreactivity

Question: Which “polyreactivity (PSR sort gate)” value does the source give for “QVQLVESGGGLVQAGGSLRLSCAASGTYRLYAMGWYRQAPGKEREFVAAITYGGGGTYYADSVKGRFTISRDNAKNTVYLQMNSLKPEDTAVYYCAADLYLTDTDVEYYYWGQGTKVTVSS” here?
Answer: low polyreactivity

Question: For “QVQLVESGGGLVQAGGSLRLSCAASGTYYLYAMGWYRQAPRKERELVAAISGSGSTNYADSVKGRFTISRDNAKNTVYLQMNSLKPEDTAVYYCAAYQRYVSVTGARYEYDYWGQGTQVTVSS”, which “polyreactivity (PSR sort gate)” value is on record?
Answer: low polyreactivity

Question: For “QVQLVESGGGLVQAGGSLRLSCAASGVIFFSYAMGWYRQAPGKERELVASISRSGGTTYYADSVKGRFTISRDNGKNTVYLQMNSLKPEDTAVYYCAARTYSYYSRDYCGQGTQVTVSS”, which “polyreactivity (PSR sort gate)” value is on record?
Answer: high polyreactivity

Question: With “QVQLVESGGGLVQAGGSLRLSCAASGVIFTFYAMGWYRQAPGKEREFVASIDWGDGSTYYADSVKGRFTISRDNAKNTVYLQMNSLKPEDTAVYYCAHDSDGYVCDTEYDYWGQGTQVTVSS” as the sequence, how does the “polyreactivity (PSR sort gate)” value read?
Answer: low polyreactivity

Question: With “QVQLVESGGGLVQAGGSLRLSCAASGVYAMGWYRQAPGQEREWVAAITSVGSTNYADSVKGRFTISRDNAKNTVYLQMNSLKPEDTAVFYCNTDRDTDELDYWGQGTQVTVSS” as the sequence, how does the “polyreactivity (PSR sort gate)” value read?
Answer: low polyreactivity

Question: For “QVQLVESGGGLVQAGGSLRLSCAASGWYRQAPGKERELVAAITYSGGSTYYADSVKGRFTISRDNAKNTVYLQMNSLKPEDTAVYYCAKQGLWIFVVVEMDYWGQGTQVTVSS”, which “polyreactivity (PSR sort gate)” value is on record?
Answer: low polyreactivity

Question: With “QVQLVESGGGLVQAGGSLRLSCAASGYIFADNDMGWYRQAPGKERELVASIDWSGGSTYYADSVKGRFTISRDNAKNTVYLQMNSLKPEDTAVYYCNKGAFGGVSSYIYWAFYSGYDYWGLGTQVTVSS” as the sequence, how does the “polyreactivity (PSR sort gate)” value read?
Answer: low polyreactivity
